This is an account of results in paper PMC12325603 (Nature Communications, 2025).

The series deals with the molecule itself. Kind of series: cryo-electron tomography.

The stoichiometry N is a count of units in the complex or per binding partner.

B1: Munc13C K1494D/K1495D/K1500D (trimer 3xD) (domain or fragment)
chain: not shown
Turning to B1, the “stoichiometry N” value turned out to be 6.
